US20130096072A1 (Genentech, published 2013)
Bridges are numbered along the chain shown (N, C = ends). Where no end group is shown, it is not given here. [ ]: non-standard residue; d: D form. Hyp = O=C(O)[C@@H]1C[C@@H](O)CN1

Assays:
[1] = target: T1, scHGF β-chain (zymogen-like HGF β, residues Asn479 to Ser728, R494E, C-terminal His-tag) (human, UniProt P14210 479-728); assay: phage panning against scHGF β (4 rounds) and phage ELISA
T1 construct: Expressed in insect cells; also called zHGF β; zymogen-like form of HGF β; not shown: C-terminal His-tag
Source text: The pfam database (Finn, R. D. et al. (2010) Nucleic Acids Res 38: D211-22) was used to derive a consensus sequence for trypsin/chymotrypsin-like serine proteases and identify the N-terminal IVGG motif. Peptide libraries were synthesized as fusions to the gene VIII coat protein of M13 phage and panned against scHGF β as previously described (Tonikian, R. et al. (2007) Nat Protoc 2: 1368-86; Sidhu, S. S. et al. (2000) Methods Enzymol. 328:333-63). […] Single phage clones were picked, grown overnight and a standard phage ELISA was used to verify target specific binding. Once the IVGG.14 sequence was identified, soft randomization on gene VIII was performed on positions X₂-X₁₁.

[2] = target: T1, scHGF β-chain (zymogen-like HGF β, …); assay: cell-based or functional assay
[3] = target: scHGF (non-cleavable form of full-length pro-HGF with a mutated cleavage site) (human, UniProt P14210 32-728); assay: cell-based or functional assay
[4] = target: T1, scHGF β-chain (zymogen-like HGF β, …); assay: BLI scHGF β activation/Met binding assay
[5] = target: T1, scHGF β-chain (zymogen-like HGF β, …); assay: BLI (OctetRed) scHGF β activation/Met binding assay: peptide titrated into 0.5 µM scHGF β over biotinylated Met Sema/PSI on streptavidin tips; steady-state single-site fit
Procedure: (§1) Met binding assays were carried out utilizing the OctetRed™ biolayer interferometry instrument (ForteBio, Inc.) as reported previously (Landgraf, K. E. et al. (2010) J Biol Chem 285: 40362-72). Biotinylated Met ECD (Sema/PSI-AviTag) was captured on the surface of streptavidin optical sensor tips (SA biosensors, ForteBio, Inc.), and transferred into buffer containing 0.5 μM scHGF β-chain variants in the presence of increasing concentration of indicated peptides. Association and dissociation reactions were monitored to ensure reversible binding between scHGF β and Met. Binding was quantified using the steady-state levels of surface response from the association reaction. Equilibrium constants were derived by least squares fitting of the titration data to a single-site binding equation. Errors reported are ±stdev of n=3 independent experiments.
Based on the finding that the consensus ZAPs contain features consistent with binding and inserting into the activation pocket, several related peptides were synthesized and utilized in a previously established scHGF β activation assay to assess their affinities and ability to active Met binding (Landgraf, K. E. et al. (2010) J Biol Chem 285: 40362-72). Since scHGF β can only weakly interact with the Met Sema-PSI domain compared to the active HGF β form, biolayer interferometry was used in the activation assay to measure the ability of a peptide to directly enhance the binding affinity of scHGF β to a streptavidin sensor surface coated with biotinylated Met (Landgraf, K. E. et al. (2010) J Biol Chem 285: 40362-72). Thus, titration of an activator peptide should result in a significant increase in the surface response signal due to enhanced scHGF β binding to Met.

[6] = target: T1, scHGF β-chain (zymogen-like HGF β, …); assay: biolayer interferometry: biotinylated Met Sema/PSI on streptavidin tips, 0.5 µM scHGF β in solution, peptide titrated; steady-state surface response of scHGF β binding to Met
Procedure: as §1
Based on the finding that the consensus ZAPs contain features consistent with binding and inserting into the activation pocket, several related peptides were synthesized and utilized in a previously established scHGF β activation assay to assess their affinities and ability to active Met binding (Landgraf, K. E. et al. (2010) J Biol Chem 285: 40362-72). […]

T1 sequence (P14210 479-728 R494E): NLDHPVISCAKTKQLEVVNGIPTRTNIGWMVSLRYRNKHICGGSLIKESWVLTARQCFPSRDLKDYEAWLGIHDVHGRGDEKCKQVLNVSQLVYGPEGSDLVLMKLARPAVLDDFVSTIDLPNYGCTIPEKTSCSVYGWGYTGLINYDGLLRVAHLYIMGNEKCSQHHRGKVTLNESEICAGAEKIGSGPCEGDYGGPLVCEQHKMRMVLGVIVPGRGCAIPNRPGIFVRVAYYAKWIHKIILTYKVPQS
Sequence of scHGF (non-cleavable form of full-length pro-HGF with a mutated cleavage site) (P14210 32-728 limits assumed, change not shown): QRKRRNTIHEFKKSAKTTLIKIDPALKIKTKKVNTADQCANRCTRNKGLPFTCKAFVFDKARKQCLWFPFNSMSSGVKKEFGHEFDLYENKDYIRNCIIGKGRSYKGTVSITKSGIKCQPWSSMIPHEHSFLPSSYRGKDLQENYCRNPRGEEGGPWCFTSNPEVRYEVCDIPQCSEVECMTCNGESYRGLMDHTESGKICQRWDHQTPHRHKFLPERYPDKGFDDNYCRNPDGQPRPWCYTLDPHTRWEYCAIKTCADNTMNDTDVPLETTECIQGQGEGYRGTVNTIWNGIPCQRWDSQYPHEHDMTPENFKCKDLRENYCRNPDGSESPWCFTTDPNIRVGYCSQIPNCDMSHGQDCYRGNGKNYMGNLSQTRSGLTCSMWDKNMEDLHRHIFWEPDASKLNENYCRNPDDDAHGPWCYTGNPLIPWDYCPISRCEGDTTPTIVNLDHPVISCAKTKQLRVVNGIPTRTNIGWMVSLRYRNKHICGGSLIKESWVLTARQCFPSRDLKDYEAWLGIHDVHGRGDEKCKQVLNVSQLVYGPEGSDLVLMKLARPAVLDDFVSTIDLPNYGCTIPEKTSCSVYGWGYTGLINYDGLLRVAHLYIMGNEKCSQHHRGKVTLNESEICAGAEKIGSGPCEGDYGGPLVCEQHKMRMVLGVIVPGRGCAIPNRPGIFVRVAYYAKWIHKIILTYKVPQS

Which “initial rate of hydrolysis (Vi) of Ile-Pro-Arg-pNA, 100 nM enzyme, 2 mM substrate” value (IVGG.147A peptide) does the source give for Protein C (zymogen) here?
The value was “the initial rate of substrate hydrolysis (Vi) for both prethrombin-2 and Protein C zymogens significantly increased upon titration of IVGG.147A into the reaction”.

For prethrombin-2, which “initial rate of hydrolysis (Vi) of Ile-Pro-Arg-pNA, 100 nM enzyme, 2 mM substrate” value (IVGG.147A peptide) is on record?
The value was “the initial rate of substrate hydrolysis (Vi) for both prethrombin-2 and Protein C zymogens significantly increased upon titration of IVGG.147A into the reaction”.

B1: ZAP.30 phage clone (ZAPtide Library) (peptide)
chain: IVGGYPAWMEY
modifications: not fully specified
notes: not shown: M13 gene VIII coat protein fused after the peptide
Does B1 bind [1]?
Result: binds

B2: ZAP.13 phage clone (ZAPtide Library) (peptide)
chain: IVGGYPWWITG
modifications: not fully specified
notes: as for B1
Does B2 bind [1]?
Result: binds

B3: IVGG.14 phage clone (ZAPtide Library) (peptide)
chain: IVGGYPWWMDV
modifications: not fully specified
notes: as for B1
Does B3 bind [1]?
Result: binds

B4: ZAP.65 phage clone (ZAPtide Library) (peptide)
chain: IVGGEPAYWYW
modifications: not fully specified; also: fused before M13 gene VIII coat protein, linker not given here
notes: as for B1
Does B4 bind [1]?
Result: binds

B5: IVGG.14 W8A variant (peptide)
peptide: IVGGYPWAMDV-NH2
How did the “activity (alanine scanning of the YPWWM turn motif), loss against IVGG.14” value [2] turn out when B5 was run?
The value was 10 fold.

B6: ZAP.91 phage clone (ZAPtide Library) (peptide)
chain: IVGGYPVYFLN
modifications: not fully specified; also: fused before M13 gene VIII coat protein, linker not given here
notes: as for B1
Does B6 bind [1]?
Result: binds

B7: ZAP.32 phage clone (ZAPtide Library) (peptide)
chain: IVGGEPVWYVW
modifications: not fully specified
notes: as for B1
Does B7 bind [1]?
Result: binds

B8: ZAP.29 phage clone (ZAPtide Library) (peptide)
chain: IVGGTRCNDWI
modifications: not fully specified
notes: as for B1
Does B8 bind [1]?
Result: binds

B9: ZAP.03 (cyclic 15-mer synthetic peptide) (peptide)
peptide: IIGGCPYWMDREECI-NH2
modifications: disulfide 5-14
notes: also called ZAP2.3; ZAP.-3
For B9, which “EC50, HeLa cell migration in an in vitro wound closure assay” value [3] is on record?
The value was 0.06 µM.

And the “EC50, cell survival of BxPC3 cells during serum starvation” value [3]?
Its value is 0.4 µM.

What about the “fold improvement relative to IVGG.14” value [4] of the same molecule?
Its value is ~100 fold.

And the Kd [5]?
The Kd was 0.3 µM.

B10: IVhyP.14 peptide (peptide)
peptide: IVGGY[Hyp]WWMDV-NH2
notes: Printed as I V G G Y hyP W W M D V
Which results are given for B10?
fold enhancement relative to IVGG.14 [4]: 2 fold; Kd [5]: 14 µM

B11: ZAP.25 phage clone (ZAPtide Library) (peptide)
chain: IVGGNKIWSVS
modifications: not fully specified
notes: as for B1
Does B11 bind [1]?
Result: binds

B12: ZAP.18 phage clone (ZAPtide Library) (peptide)
chain: IVGGFVFWCDQ
modifications: not fully specified
notes: as for B1
Does B12 bind [1]?
Result: binds

B13: ZAP.01 (linear 15-mer synthetic peptide) (peptide)
peptide: IIGGDPYWVPHPGDA-NH2
B13 was tested. Which Kd [5] did it give?
Its Kd is 6 µM.

B14: ZAP.54 phage clone (ZAPtide Library) (peptide)
chain: IVGGLDVEYEL
modifications: not fully specified
notes: as for B1
Does B14 bind [1]?
Result: binds

B15: IIhyP.14 peptide (peptide)
peptide: IIGGY[Hyp]WWMDV-NH2
notes: Printed as I I G G Y hyP W W M D V
What does the source list for B15?
fold better than IVGG.14 [4]: 7 fold; fold better than the previously described peptide activators [4]: > 400 fold; Kd [5]: 5 µM

B16: IVDG.14 peptide (peptide)
peptide: IVDGYPWWMDV-NH2
Which Kd [5] does the source give for B16 here?
The Kd was 85 µM.

B17: IVDD.14 peptide (peptide)
peptide: IVDDYPWWMDV-NH2
Does B17 bind [6]?
Result: no binding (tested: about 125 µM)

B18: ZAP.53 phage clone (ZAPtide Library) (peptide)
chain: IVGGYPWWVDV
modifications: not fully specified
notes: as for B1
Does B18 bind [1]?
Result: binds

B19: IVGD.14 peptide (peptide)
peptide: IVGDYPWWMDV-NH2
Does B19 bind [6]?
Result: no binding

B20: IVdG.14 peptide (peptide)
peptide: IV[dD]GYPWWMDV-NH2
notes: Printed as I V d G Y P W W M D V, d = D-aspartic acid
With B20 as the molecule, how does the “EC50, BxPC-3 cell survival assay, peptide titrated with scHGF” value [3] read?
Its value is ~20 µM.

And the “fold better than peptides previously described” value [4]?
Its value is 100 fold.

What about the Kd [5] of the same molecule?
The Kd was 21 µM.

B21: ZAP.24 phage clone (ZAPtide Library) (peptide)
chain: IVGGCKRSYWE
modifications: not fully specified
notes: as for B1
Does B21 bind [1]?
Result: binds

B22: ZAP.04 phage clone (ZAPtide Library) (peptide)
chain: IVGGSDFPWWV
modifications: not fully specified
notes: as for B1
Does B22 bind [1]?
Result: binds

B23: ZAP.50 phage clone (ZAPtide Library) (peptide)
chain: IVGGDYYWVVQ
modifications: not fully specified
notes: as for B1
Does B23 bind [1]?
Result: binds

B24: ZAP.03S peptide (peptide)
peptide: IIGGSPYWMDREESI-NH2
notes: ZAP.03 with both cysteines changed to serine; no disulfide
With B24 as the molecule, how does the Kd [5] read?
The Kd was 59 µM.

B25: ZAP.67 phage clone (ZAPtide Library) (peptide)
chain: IVGGPHKAFLL
modifications: not fully specified; also: fused before M13 gene VIII coat protein, linker not given here
notes: as for B1
Does B25 bind [1]?
Result: binds

B26: ZAP.11 phage clone (ZAPtide Library) (peptide)
chain: IVGGHPMSPFS
modifications: not fully specified
notes: as for B1
Does B26 bind [1]?
Result: binds

B27: ZAP.63 phage clone (ZAPtide Library) (peptide)
chain: IVGGMRLCGYI
modifications: not fully specified; also: fused before M13 gene VIII coat protein, linker not given here
notes: as for B1
Does B27 bind [1]?
Result: binds

B28: IVGG.14 P6A variant (peptide)
peptide: IVGGYAWWMDV-NH2
For B28, which “activity (alanine scanning of the YPWWM turn motif), loss against IVGG.14” value [2] is on record?
The value was 25 fold.

B29: ZAP.39 phage clone (ZAPtide Library) (peptide)
chain: IVGGSACLIAM
modifications: not fully specified
notes: as for B1
Does B29 bind [1]?
Result: binds

B30: ZAP.15 phage clone (ZAPtide Library) (peptide)
chain: IVGGDPWWFVS
modifications: not fully specified
notes: as for B1
Does B30 bind [1]?
Result: binds

B31: ZAP.52 phage clone (ZAPtide Library) (peptide)
chain: IVGGLWEMWVT
modifications: not fully specified
notes: as for B1
Does B31 bind [1]?
Result: binds

B32: ZAP.09 phage clone (ZAPtide Library) (peptide)
chain: H-IVGGDYWWVPI
modifications: not fully specified
notes: as for B1
Does B32 bind [1]?
Result: binds

B33: ZAP.03 phage clone of Table 4B (ZAPtide Library, SEQ ID NO:129) (peptide)
chain: IVGGDFYSSYW
modifications: not fully specified
notes: as for B1
Does B33 bind [1]?
Result: binds

B34: ZAP.01a phage clone (ZAPtide Library) (peptide)
chain: IVGGVRCWVSN
modifications: not fully specified
notes: Not the 15-mer ZAP.01; not shown: M13 gene VIII coat protein fused after the peptide
Does B34 bind [1]?
Result: binds

B35: ZAP.43 phage clone (ZAPtide Library) (peptide)
chain: IVGGDPVYVLY
modifications: not fully specified
notes: as for B1
Does B35 bind [1]?
Result: binds

B36: ZAP.45 phage clone (ZAPtide Library) (peptide)
chain: IVGGKWQRKRV
modifications: not fully specified
notes: as for B1
Does B36 bind [1]?
Result: binds

B37: ZAP.06 phage clone (ZAPtide Library) (peptide)
chain: IVGGDGMPWWI
modifications: not fully specified
notes: as for B1
Does B37 bind [1]?
Result: binds
